# Test results published in patent US20190177705A1 (UNIVERSITEIT GENT, published 2019).
# B1: unfused gp130 receptor fragment (encoded by pMG1) (other, human, UniProt P40189 760-918, looked up)
# chain: STVVHSGYRHQVPSVQVFSRSESTQPLLDSEERPEDLQLVDHVDGGDGILPRQQYFKQNCSQHESSPDISHFERSKQVSSVNEEDFVRLKQQISDHISQSCGSGQMKMFQEVSAADAFGPGTEGQVERFETVGMEAATDEGMPKSYLPQTVRQGGYMPQ
# notes: Background control, expressed in HEK293-T cells; also called unfused gp130 fragment
# Tests used:
# [1] = target: Flag-gp130-RTp51 fusion protein (encoded by pMG2-RTp51) (human; HIV1) (UniProt P40189); assay: cell-based or functional assay
# [2] = target: T1, HA-Tyk2(C)-p53(N) fusion protein (encoded by pMet7-HA-Tyk2(C)-p53(N)) (human, UniProt P04637 2-72); assay: kinase-substrate sensor assay, rPAPI-luciferase reporter in HEK293-T cells
# T1 construct: range 2-72; Expressed in HEK293-T cells; not shown: HA tag
molecule,measurement,setting,value
HA-Tyk2(R1027A)-RTp66 fusion protein (encoded by pMet7-HA-Tyk2(R1027A)-RTp66),imidazole-dependent induction of the luciferase signal,[1],36 fold
B1,binding result,[2],no binding
